This is an account of results in US20180051082A1.

One assay concerns the target human FcRn (human) (UniProt P55899). The assay can be described thus: BIACORE-based assay, antibody bound to FcRn at pH 6.0, residual bound antibody after adjustment to pH 7.4. For orientation: Surface plasmon resonance follows binding to a sensor surface in real time, without labels.
Assay [1] has as its target cynomolgus FcRn (cynomolgus monkey) (UniProt Q8SPV9). The description is as above.

Sequence of cynomolgus FcRn (cynomolgus monkey) (Q8SPV9 24-297): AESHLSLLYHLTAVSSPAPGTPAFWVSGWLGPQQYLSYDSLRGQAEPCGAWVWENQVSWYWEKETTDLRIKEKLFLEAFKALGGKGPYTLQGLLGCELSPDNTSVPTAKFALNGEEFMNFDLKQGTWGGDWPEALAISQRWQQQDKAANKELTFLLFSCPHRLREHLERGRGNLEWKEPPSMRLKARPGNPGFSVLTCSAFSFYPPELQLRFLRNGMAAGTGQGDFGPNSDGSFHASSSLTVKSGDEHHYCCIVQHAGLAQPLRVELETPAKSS
Sequence of human FcRn (human) (P55899 24-297 limits assumed, chain 1 of 2): as the sequence (Q8SPV9 24-297) above, with D39N, Q44E, S99G, G189S, N190S, M217L, T269S counted along it
Sequence of human FcRn (human) (P61769 21-119 limits assumed, chain 2 of 2, further chain): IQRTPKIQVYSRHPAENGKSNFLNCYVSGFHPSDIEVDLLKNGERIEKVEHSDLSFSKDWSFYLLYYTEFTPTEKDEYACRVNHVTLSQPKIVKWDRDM

Regarding “human IgG1 version of BMS-936558, designated BMS (antibody)”, the figures for the % Residual Binding at pH 7.4 (in the assay with human FcRn (human); in assay [1]) were 2% and 1.7%, respectively.
